Test results: patent publication US20260028391A1
Substitutions are numbered along the chain they refer to. Names may count otherwise. “And” between values parts separate entries of the source, which are not always exact repeats. Equal values may be shown once.

How the values were obtained:
[1] = target: RSV fusion glycoprotein (RSV-F) of the RSV used in the neutralization of Table 33 (respiratory syncytial virus, strain not stated); experiment: cell-based or functional assay
[2] = target: fusion glycoprotein (F) of the MPV used in the neutralization of Table 34 (metapneumovirus); experiment: cell-based or functional assay
[3] = target: biot-MPV-F D280N (metapneumovirus (MPV)); experiment: BLI (Octet), biotinylated F on SA sensors, mAb 5 µg/ml
[4] = target: biot-MPV-F wt (metapneumovirus (MPV)); experiment: as above
[5] = target: MPV F D280N mutant expressed on transfected Expi293F cells (metapneumovirus (MPV)); experiment: flow cytometry, transfected Expi293F cells, fixed and permeabilised
[6] = target: MPV F WT expressed on transfected Expi293F cells (metapneumovirus (MPV)); experiment: as above
[7] = target: biot-MPV-F wt (metapneumovirus (MPV)); experiment: BLI, SA sensor loaded with biot-MPV-F wt, mAb 5 ug/ml, 4 min association, 6 min dissociation
[8] = target: biot-MPV-F D280N (metapneumovirus (MPV)); experiment: BLI, SA sensor loaded with biot-MPV-F D280N (sheet title 'MPV-G D280N'), mAb 5 ug/ml, 4 min association, 6 min dissociation
[9] = target: RSV-B B18537/62 F protein (RSV B, strain B18537/62) (UniProt P13843); experiment: cell-based or functional assay
[10] = target: RSV-B B9320 F protein (RSV B, strain B9320); experiment: cell-based or functional assay
[11] = target: RSV-long strain fusion glycoprotein (F) (RSV, long strain) (UniProt P12568); experiment: cell-based or functional assay
[12] = target: fusion glycoprotein of Human Metapneumovirus-GFP CAN97-83 (Vira Tree M121) (human metapneumovirus CAN97-83) (UniProt Q6WB98); experiment: cell-based or functional assay
[13] = target: fusion glycoprotein of Human metapneumovirus-TN/96-213 (BEI NR-22243) (human metapneumovirus TN/96-213); experiment: cell-based or functional assay
[14] = target: fusion glycoprotein of the MPV D280 used in the neutralization assay of Example 3 (metapneumovirus (strain not stated)); experiment: cell-based or functional assay
[15] = target: MPV fusion glycoprotein MPV-F D280 (metapneumovirus (strain not stated)); experiment: SPR; sensors loaded with F protein, mAb in solution
[16] = target: MPV fusion glycoprotein MPV-F N280 (metapneumovirus (strain not stated)); experiment: as above
[17] = target: MPV fusion glycoprotein MPV-F D280 (metapneumovirus (strain not stated)); experiment: SPR; sensors loaded with MPV-F, mAb in solution (Experiment 3)
[18] = target: MPV fusion glycoprotein MPV-F N280 (metapneumovirus (strain not stated)); experiment: as above
[19] = target: MPV fusion glycoprotein with the D280N mutation (MPV-F N280), recombinant protein loaded on sensors (metapneumovirus (MPV), strain not stated); experiment: same manner as Experiment 1, RUN10, MPV-F D280 or MPV-F N280 on the sensors (Example 6, Experiment 3)
[20] = target: biot-RSV-F wt (respiratory syncytial virus (RSV)); experiment: BLI (Octet), biotinylated F on SA sensors, mAb 5 µg/ml
[21] = target: DS-Cav1 RSV F (respiratory syncytial virus); experiment: ELISA on DS-Cav1 RSV F
[22] = target: MPV fusion glycoprotein with the D280N mutation (MPV-F N280) (metapneumovirus); experiment: biolayer interferometry (BLI), rIgG1 with M428L/N434S
[23] = target: MPV fusion glycoprotein without the D280N mutation (MPV-F D280) (metapneumovirus); experiment: as above
[24] = target: biot-RSV-F wt (respiratory syncytial virus (RSV)); experiment: BLI, SA sensor loaded with biot-RSV-F wt, mAb 5 ug/ml, 4 min association, 6 min dissociation
[25] = target: biot-MPV-F D280N (metapneumovirus (MPV)); experiment: BLI, SA sensor loaded with biot-MPV-F D280N (sheet title 'MPV-G D280N'; head of the value column printed 'MPV-F', not 'KD (M)'), mAb 5 ug/ml, 4 min association, 6 min dissociation

B1: MPK190-v1.1-rIgG1m17,1-LS (antibody, V domains shown)
VH: QVQLVESGGGLVKPGGSLTLSCAASGFSISGYGMNWVRQAPGRGLEWVASISASSTYIYYADSMKGRFTISRDNGKTSLYLQMKSLRAEDTAVYYCARAPIEPPYFDLWGRGTLVTVSS
VL: QSVLTQPPSVSGAPGQRVTISCTGSNSNIGAGYDVHWYQHLPGKAPKVLIYGNNNRPSVVPDRFSGSNSGASASLAISGLQAEDEADYFCQSYDRRLSGPIFGGGTKLTVL
IC50 (ng/mL) in neutralization against RSV [1]: 5.8 ng/mL
IC50 (ng/mL) in neutralization against MPV [2]: 0.705 ng/mL
Kd [3]: 0.362 nM
Kd [4]: < 0.001 nM
Binding (FACS) relative to parental mAb MPK190-v1.1 [5]: 1
Binding (FACS) relative to parental mAb MPK190-v1.1 [6]: 1
Kd [7]: < 0.001 nM
Kd [8]: 0.402 nM

B2: MPK190-rFab (Fab, V domains shown)
VH: B1 VH with Q1E
VL: B1 VL
EC50, virus neutralization (Fab testing) [9]: 0.0633 nM
EC50, virus neutralization (Fab testing) [10]: 0.0325 nM
EC50, virus neutralization (Fab testing) [11]: 0.0979 nM

B3: MPK15 (antibody, human IgG1, V domains shown)
VH: EVQLVESGGGLVKPGGSLRLSCTVSGITFSDAWMTWVRQAPGKGLEWVGRIKRKVDGETADYAPSVKGRFTISRDDSKSTLYLQMNSLKTEDTGLYYCLTTWSDQFWGQGTLVTVSS
VL: QSVVTQEPSLTVSPGGTVTLTCDSSSGAVTRGHYPFWFQQKPGQVPRTLIYDTSKKHSWTPARFSGSLLGDKAVLTLSGAQPEDEADYYCLLTYSGVRVFGGGTKLTVL
MPV D280 Neutralization by MPK15 [12]: 5.8
MPV D280 Neutralization by MPK15 [13]: 15.3
MPV D280 Neutralization - IC50 [14]: 3.81 ng/mL and 3.4 ng/mL
Kd [15]: 0.0784 nM
Kd [16]: 0.0574 nM
Kd [17]: 0.071 nM
Kd [18]: 0.072 nM
Kd [19]: 0.073 nM

B4: MPH12-rIgG1-LS (antibody, V domains shown)
VH: QVQLVESGGGLVKPGGSLRLSCVASGFTFSGFYMKWIRQAPGKGLEWVSSISASGSYTNYADSVEGRFTVSRDNAKNSLFLLMSSLRAEDTAVYYCARGDSYCGASACHGEFFHKWGQGTLVTVSS
VL: QSVLTQPPSVSGAPGQRVTISCTGSDSNIGADFDVHWYQQLPGTAPKLLIYGNINRPSGVPDRFSGSRSGTSAFLAITRLQAEDEADYYCQSYDRSLHYVFGAGTKVTVL
IC50 (ng/mL) in neutralization against RSV [1]: 12.9 ng/mL
IC50 (ng/mL) in neutralization against MPV [2]: 5.26 ng/mL
Kd [3]: 1.01 nM
Kd [4]: < 0.001 nM
Kd [20]: 1.2 nM

B5: MPH12-v17 (VH-FRGL-D62E/VL-D25S) (antibody, V domains shown)
VH: B4 VH with V23A, D62E, V70I, F80Y, L82Q, S84N
VL: B4 VL with D26S
EC50 [21]: 25.1 ng/mL
Kd [22]: 0.55 nM
Kd [23]: 0.028 nM

B6: MPH12-v29 (VH-FRGL-D62E/VL-S26A) (antibody, V domains shown)
VH: B4 VH with V23A, D62E, V70I, F80Y, L82Q, S84N
VL: B4 VL with S27A
EC50 [21]: 42.5 ng/mL
Kd [22]: 0.64 nM
Kd [23]: 0.027 nM

B7: MPH12-v35 (VH-FRGL-D62E/VL-FRGL-D25S) (antibody, V domains shown)
VH: B4 VH with V23A, D62E, V70I, F80Y, L82Q, S84N
VL: B4 VL with D26S, R68K, F74S, R79G, A103T
Kd [22]: 0.78 nM
Kd [23]: 0.028 nM

B8: MPK77-rIgG1-LS (antibody, V domains shown)
VH: EVQLVESGGGLVKPGGSLRLSCAASKSFSGYYMIWIRQAPGRGLEWIADISGSSTYTDYADSVKGRFTISRDNTRNTLYLQMNSLRPEDTAVYYCATEQVPSPGPFDLWGPGTLVTVSS
VL: QSVLTQPPSVSGAPGQRVIISCTGSSSNIGAGYDVHWYQQFPGTSPKLLIYRNTNRPSGVPDRFSGFKSGASAALAITGLQAEDEADYYCQSYDRSLSGWAFGGGTKVTVL
Kd [3]: 0.394 nM
Kd [4]: < 0.001 nM
Kd [20]: 0.00228 nM
Kd [24]: < 0.001 nM
Kd [7]: < 0.001 nM
Kd [8]: 0.406 nM

B9: MPK104-v1.1-rIgG1m17,1-LS (antibody, V domains shown)
VH: QVQLVESGGGLVKPGGSLRLSCAASGFTIDGYGMNWVRQAPGKGLEWVSSISASSNYIYYADSMKGRFTISRDNGKNSLYLQMHSLRVEDTGVYYCARAPLEPPYFDLWGRGTLVTVSS
VL: QSVLTQPPSVSGAPGQRVTISCSGGSSNIGAGYDVHWYQQVPGKGPKVLIYGNNNRPSGVPDRFSGSNFGASASLAITGLQADDEADYFCQSYDRRLGGPVFGGGTKLTVL
IC50 (ng/mL) in neutralization against RSV [1]: 6.61 ng/mL
IC50 (ng/mL) in neutralization against MPV [2]: 1.36 ng/mL
Binding (FACS) relative to parental mAb MPK104-v1.1 [5]: 1
Binding (FACS) relative to parental mAb MPK104-v1.1 [6]: 1
Kd [7]: < 0.001 nM
Kd [25]: 0.497 nM

B10: MPK104-rIgG1-LS (antibody, V domains shown)
VH: B9 VH with Q1E
VL: B9 VL
Kd [3]: 0.391 nM
Kd [4]: < 0.001 nM
Kd [20]: 0.306 nM
Kd [24]: 0.0373 nM
Kd [7]: < 0.001 nM
Kd [25]: 0.472 nM

B11: MPK104-v1.3-rIgG1m17,1-LS (antibody, V domains shown)
VH: B9 VH
VL: B9 VL with N54T, D83E
IC50 (ng/mL) in neutralization against RSV [1]: 4.8 ng/mL
IC50 (ng/mL) in neutralization against MPV [2]: 1.16 ng/mL
Kd [3]: 0.37 nM
Kd [4]: < 0.001 nM
Binding (FACS) relative to parental mAb MPK104-v1.1 [5]: 1.1
Binding (FACS) relative to parental mAb MPK104-v1.1 [6]: 1
Kd [7]: < 0.001 nM
Kd [25]: 0.49 nM
